This note sets out measurements from US20170037111A1, “Novel peptides and combination of peptides for use in immunotherapy against ovarian cancer and other cancers” (immatics biotechnologies GmbH, priority 2015, published 2017).

The target of the test is HLA-A*02:01 (Homo sapiens, UniProt P04439, D140Y/D185E/D98H/E176V/E277Q/G131W/G231S/I119V/I121R/I166T/I218V/L300P/L318F/N151K/N90K/P208A/P217A/Q86G/Q94H/R138H/R169H/T345S). Nature of the test: MHC binding assay (UV-ligand exchange, β2m ELISA, peptide exchange yield). Particulars: MHC class I binding score; binding to HLA-A*02:01 ranged by peptide exchange yield (UV-ligand exchange, β2m ELISA). The method, boiled down:
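Peptide–HLA-A*02:01 complexes were formed by UV-mediated exchange of a UV-cleavable ligand for the test peptide. Exchange yield was measured by capturing complexes on streptavidin, detecting with HRP anti-β2m antibody (1 h, 37°C) and reading TMB absorbance at 450 nm.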
On the technique in general: ELISA stands for enzyme-linked immunosorbent assay.

For “86 (NLIGKIENV; listed as Homo sapiens) [compound 86]”, the Peptide exchange result is reported as “″+++″ (≧50% = +++)”.

For the substance “428 (KLGHTDILVGV; listed as Homo sapiens) [compound 428]”, the Peptide exchange entry is given as “″++″ (≧20% = ++)”.

For “91 (IMQDFPAEIFL; listed as Homo sapiens) [compound 91]”, the Peptide exchange entry is “″++++″ (≧75% = ++++)”. Then “287 (FLNEFFLNV; listed as Homo sapiens) [compound 287]”, with “″+++″ (≧50% = +++)”; and “502 (RLLAQVPGL; listed as Homo sapiens) [compound 502]”, with “″+++″ (≧50% = +++)”; and “207 (GLTSTNAEV; listed as Homo sapiens) [compound 207]”, with “″++″ (≧20% = ++)”. With “92 (YLIPFTGIVGL; listed as Homo sapiens) [compound 92]”, the Peptide exchange result is “″++″ (≧20% = ++)”. Then “436 (HLAEVSAEV; listed as Homo sapiens) [compound 436]”, with “″+++″ (≧50% = +++)”; and “363 (KVLDVSDLESV; listed as Homo sapiens) [compound 363]”, with “″++″ (≧20% = ++)”; and “472 (KLLEVSDDPQV; listed as Homo sapiens) [compound 472]”, with “″+++″ (≧50% = +++)”. Then “608 (SLLSVSHAL; listed as Homo sapiens) [compound 608]”, with “″+++″ (≧50% = +++)”; and “83 (ILAPTVMMI; listed as Homo sapiens) [compound 83]”, with “″+++″ (≧50% = +++)”; and “515 (LLQELVLFL; listed as Homo sapiens) [compound 515]”, with “″+++″ (≧50% = +++)”. On to “137 (TLVLTLPTV; listed as Homo sapiens) [compound 137]”, for which the Peptide exchange entry is “″++++″ (≧75% = ++++)”. Regarding “403 (KLYDRILRV; listed as Homo sapiens) [compound 403]”, the Peptide exchange result is “″++″ (≧20% = ++)”. As to “325 (FIMPATVADATAV; listed as Homo sapiens) [compound 325]”, the Peptide exchange entry is reported as “″+++″ (≧50% = +++)”. Consider “620 (KLLNKIYEA; listed as Homo sapiens) [compound 620]”, for which the Peptide exchange entry was “″++++″ (≧75% = ++++)”. Then “500 (SLMEDQVLQL; listed as Homo sapiens) [compound 500]”, with “″+++″ (≧50% = +++)”; and “471 (YLYNNMIAKI; listed as Homo sapiens) [compound 471]”, with “″+++″ (≧50% = +++)”; and “145 (FLATSGTLAGI; listed as Homo sapiens) [compound 145]”, with “″++″ (≧20% = ++)”.

As for “610 (LLAPTPYIIGV; listed as Homo sapiens) [compound 610]”, the Peptide exchange entry is “″+++″ (≧50% = +++)”. Then “54 (SLLEQGKEPWMV; listed as Homo sapiens) [compound 54]”, with “″+++″ (≧50% = +++)”; and “139 (SVMEVNSGIYRV; listed as Homo sapiens) [compound 139]”, with “″+++″ (≧50% = +++)”; and “14 (AAYGGLNEKSFV; listed as Homo sapiens) [compound 14]”, with “″+++″ (≧50% = +++)”. In the case of “318 (GLINTGVLSV; listed as Homo sapiens) [compound 318]”, the Peptide exchange result is given as “″++″ (≧20% = ++)”. Consider “389 (LLADVTHLL; listed as Homo sapiens) [compound 389]”, for which the Peptide exchange result is recorded as “″++″ (≧20% = ++)”.

For “75 (GLLEVMVNL; listed as Homo sapiens) [compound 75]”, the Peptide exchange entry is “″+++″ (≧50% = +++)”. Consider “24 (SLSDGLEEV; listed as Homo sapiens) [compound 24]”, for which the Peptide exchange entry is given as “″++″ (≧20% = ++)”. Turning to “182 (MLLEAPGIFL; listed as Homo sapiens) [compound 182]”, the Peptide exchange result is given as “″+++″ (≧50% = +++)”. As to “162 (YQQAQVPSV; listed as Homo sapiens) [compound 162]”, the Peptide exchange result was “″+++″ (≧50% = +++)”. As for “115 (AIAGAGILYGV; listed as Homo sapiens) [compound 115]”, the Peptide exchange result is on record as “″++″ (≧20% = ++)”. Turning to “227 (ALMNTLLYL; listed as Homo sapiens) [compound 227]”, the Peptide exchange result is listed as “″++″ (≧20% = ++)”. Then “170 (RLQETLSAA; listed as Homo sapiens) [compound 170]”, with “″+++″ (≧50% = +++)”; and “382 (ALQNYIKEA; listed as Homo sapiens) [compound 382]”, with “″++″ (≧20% = ++)”.

On to “501 (LLDPNVKSIFV; listed as Homo sapiens) [compound 501]”, for which the Peptide exchange entry is “″+++″ (≧50% = +++)”. On to “588 (SLLPLSHLV; listed as Homo sapiens) [compound 588]”, for which the Peptide exchange result was “″+++″ (≧50% = +++)”. Then “559 (VTVPPGPSL; listed as Homo sapiens) [compound 559]”, with “″++″ (≧20% = ++)”; and “576 (ILLNNSGQIKL; listed as Homo sapiens) [compound 576]”, with “″++++″ (≧75% = ++++)”; and “106 (LLYDAVHIVSV; listed as Homo sapiens) [compound 106]”, with “″+++″ (≧50% = +++)”. As to “304 (MTLGQIYYL; listed as Homo sapiens) [compound 304]”, the Peptide exchange result was “″+++″ (≧50% = +++)”.

As to “208 (KISPVTFSV; listed as Homo sapiens) [compound 208]”, the Peptide exchange result is reported as “″+++″ (≧50% = +++)”. Turning to “310 (FLVDTPLARA; listed as Homo sapiens) [compound 310]”, the Peptide exchange result is given as “″++++″ (≧75% = ++++)”. With “243 (LLLNELPSV; listed as Homo sapiens) [compound 243]”, the Peptide exchange entry was “″+++″ (≧50% = +++)”.

With “241 (SLVEVNPAYSV; listed as Homo sapiens) [compound 241]”, the Peptide exchange result is on record as “″+++″ (≧50% = +++)”. Then “604 (SILDRDDIFV; listed as Homo sapiens) [compound 604]”, with “″+++″ (≧50% = +++)”; and “371 (FLQAHLHTA; listed as Homo sapiens) [compound 371]”, with “″++++″ (≧75% = ++++)”. Under “70 (GLLDYPVGV; listed as Homo sapiens) [compound 70]” stands “″+++″ (≧50% = +++)”.

Consider “277 (LLPPLESLATV; listed as Homo sapiens) [compound 277]”, for which the Peptide exchange result is on record as “″++″ (≧20% = ++)”. Under “493 (GLLGEKTQDLIGV; listed as Homo sapiens) [compound 493]” stands “″+++″ (≧50% = +++)”. Under “621 (VLMDRLPSLL; listed as Homo sapiens) [compound 621]” stands “″++++″ (≧75% = ++++)”. Then “339 (GLWEIENNPTVKA; listed as Homo sapiens) [compound 339]”, with “″++++″ (≧75% = ++++)”.

Regarding “341 (SQIALNEKLVNL; listed as Homo sapiens) [compound 341]”, the Peptide exchange entry was “″+++″ (≧50% = +++)”. Then “321 (GLFEDVTQPGILL; listed as Homo sapiens) [compound 321]”, with “″++++″ (≧75% = ++++)”.

“205 (SLYPGTETMGL; listed as Homo sapiens) [compound 205]”: the Peptide exchange result is listed as “″+++″ (≧50% = +++)”. With “21 (VLDELDMEL; listed as Homo sapiens) [compound 21]”, the Peptide exchange entry is listed as “″++″ (≧20% = ++)”. Under “358 (ALDEYTSEL; listed as Homo sapiens) [compound 358]” stands “″++++″ (≧75% = ++++)”.

As to “543 (GLLPTPITQQASL; listed as Homo sapiens) [compound 543]”, the Peptide exchange entry was “″+++″ (≧50% = +++)”. Then “116 (YHIDEEVGF; listed as Homo sapiens) [compound 116]”, with “″+″ (≧10% = +)”. Then “114 (SLVGEPILQNV; listed as Homo sapiens) [compound 114]”, with “″++″ (≧20% = ++)”. Under “519 (GLLHLTLLL; listed as Homo sapiens) [compound 519]” stands “″+++″ (≧50% = +++)”. As for “426 (RLADKSVLV; listed as Homo sapiens) [compound 426]”, the Peptide exchange result is on record as “″+++″ (≧50% = +++)”.

Consider “461 (VMFRTPLASV; listed as Homo sapiens) [compound 461]”, for which the Peptide exchange entry is “″++″ (≧20% = ++)”. For the substance “124 (ALYETELADA; listed as Homo sapiens) [compound 124]”, the Peptide exchange entry was “″++″ (≧20% = ++)”. With “20 (RMIEYFIDV; listed as Homo sapiens) [compound 20]”, the Peptide exchange result is recorded as “″+++″ (≧50% = +++)”. In the case of “464 (ALNDCIYSV; listed as Homo sapiens) [compound 464]”, the Peptide exchange entry is “″+++″ (≧50% = +++)”.

Take “52 (FLLAHGLGFLL; listed as Homo sapiens) [compound 52]”: the Peptide exchange entry is reported as “″++++″ (≧75% = ++++)”.

On to “126 (VLAYFLPEA; listed as Homo sapiens) [compound 126]”, for which the Peptide exchange result is “″++++″ (≧75% = ++++)”.

Take “585 (ALWDLAADKQTL; listed as Homo sapiens) [compound 585]”: the Peptide exchange entry was “″++++″ (≧75% = ++++)”.

With “59 (IMEDIILTL; listed as Homo sapiens) [compound 59]”, the Peptide exchange entry is given as “″+++″ (≧50% = +++)”. Then “378 (ALGYFVPYV; listed as Homo sapiens) [compound 378]”, with “″+++″ (≧50% = +++)”.
